One block for each binder: values may come before it.
B3: S. pombe Lsm3 (natural protein)
chain: not shown
notes: Lsm3, S. pombe, codon-optimised open reading frame; TEV site between GST and Lsm3; The complex was held through the GST on Lsm3 on glutathione agarose during the purification; TEV protease was added to the eluate before the later steps and the crystallisation; source: E. coli BL21(DE3) STAR pLysS, coexpressed with the other Lsm proteins, purified as part of the Lsm2–8 or Lsm1–7 complex; not …

Key:
Settings in all cases: both partners purified
S. pombe Lsm5 = target: T1, S. pombe Lsm5 (S. pombe, UniProt O42978 2-80); assay: crystal structure; Lsm1_(Δ56C)–7 ring with UUUUUA (1.8 Å) or AUUUUG (2.1 Å); 10% PEG 8000, 20% ethylene glycol, HEPES/MOPS
T1 construct: Lsm5, S. pombe, codon-optimised open reading frame, no purification tag; amino-terminal methionine missing by ESI-MS; source: E. coli BL21(DE3) STAR pLysS, coexpressed with the other Lsm proteins, purified as part of the Lsm2–8 or Lsm1–7 complex
T1 sequence (O42978 2-80): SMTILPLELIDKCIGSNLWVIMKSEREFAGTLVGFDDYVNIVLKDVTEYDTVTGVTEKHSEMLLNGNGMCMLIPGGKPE

S. pombe Lsm3 [1] = target: B3; assay: as above
Sequence of S. pombe Lsm3 (Q9Y7M4 whole entry): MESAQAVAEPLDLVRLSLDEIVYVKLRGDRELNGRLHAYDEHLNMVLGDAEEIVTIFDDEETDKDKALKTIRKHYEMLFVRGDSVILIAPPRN

S. pombe Lsm4 = target: T2, S. pombe Lsm4 (S. pombe, UniProt O14352 1-121); assay: crystal structure; Lsm2–8 ring with UUUUU-3′-OH (1.9 Å) or UUUUU>p (2.3 Å); hanging drop, 16°C, 100–200 mM KCl, 50–100 mM HEPES pH 7.4, 35% pentaerythritol propoxylate
T2 construct: Lsm4, S. pombe, codon-optimised open reading frame; noncleavable tag; source: E. coli BL21(DE3) STAR pLysS, coexpressed with the other Lsm proteins, purified as part of the Lsm2–8 or Lsm1–7 complex; not shown: Strep-II, C-terminal, kept
T2 sequence (looked up): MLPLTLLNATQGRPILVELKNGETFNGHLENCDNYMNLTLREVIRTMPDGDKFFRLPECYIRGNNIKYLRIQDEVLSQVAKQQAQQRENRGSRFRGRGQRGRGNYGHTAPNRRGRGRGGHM

S. pombe Lsm2 [2] = target: T3, S. pombe Lsm2 (S. pombe, UniProt O94408 1-96); assay: as above
T3 construct: Lsm2, S. pombe, codon-optimised open reading frame, no purification tag; source: E. coli BL21(DE3) STAR pLysS, coexpressed with the other Lsm proteins, purified as part of the Lsm2–8 or Lsm1–7 complex
T3 sequence (looked up): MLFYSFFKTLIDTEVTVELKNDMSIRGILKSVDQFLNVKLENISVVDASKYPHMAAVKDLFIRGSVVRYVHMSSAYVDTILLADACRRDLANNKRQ

S. pombe Lsm3 [3] = target: B3; assay: as above
S. pombe Lsm2 [4] = target: T3, S. pombe Lsm2; assay: crystal structure; Lsm1_(Δ56C)–7 ring with UUUUUA (1.8 Å) or AUUUUG (2.1 Å); 10% PEG 8000, 20% ethylene glycol, HEPES/MOPS

- binding result (S. pombe Lsm5): binds
- binding result (S. pombe Lsm3 [1]): binds
B1: S. pombe Lsm6 (natural protein, UniProt Q9UUI1 1-75, looked up)
chain: MDSSPNEFLNKVIGKKVLIRLSSGVDYKGILSCLDGYMNLALERTEEYVNGKKTNVYGDAFIRGNNVLYVSALDD
notes: Lsm6, S. pombe, codon-optimised open reading frame; source: E. coli BL21(DE3) STAR pLysS, coexpressed with the other Lsm proteins, purified as part of the Lsm2–8 or Lsm1–7 complex; not shown: MBP, N-terminal, cleaved

- binding result (S. pombe Lsm4): binds
- binding result (S. pombe Lsm2 [2]): binds
- binding result (S. pombe Lsm3 [3]): binds
B2: S. pombe Lsm8 (natural protein, UniProt O74483 2-94, looked up)
chain: SLADFMEQRVQVITNDGRVVLGSLKGFDHTTNLILSDSFERIISMDQDMETIPLGVYLLRGENVAMVGLVNEELDSEIEWTKIRGEAIPDVVH
notes: Lsm8, S. pombe, codon-optimised open reading frame, no purification tag; amino-terminal methionine missing by ESI-MS; source: E. coli BL21(DE3) STAR pLysS, coexpressed with the other Lsm proteins, purified as part of the Lsm2–8 complex

Binder: B3
- binding result (S. pombe Lsm2 [4]): binds
